The results in this text go back to patent US20110039788, “COMPOSITIONS, METHODS AND KITS FOR DETECTING AND TREATING CANCER” (University of Miami, published 2011).

In series [1] the target is T1, TCF4 (TCF7L2) DNA-binding domain (UniProt Q9NQB0 Q9NQB0:265-496). Briefly: EMSA; high affinity; anti-His supershift assay. The conditions noted are these: tags: His (pET28A), expressed in E. coli; label: 32P 5' end. As for the experimental part:
(§1) Double-stranded DNA oligonucleotides (30 mers) containing the genomic TBE sites T1-T4 with flanking sequences were 5′ end-labeled with ³²P and 5000 cpm/μl of labeled probe was incubated with 1 μg of recombinant His-TCF4 protein in a total volume of 15 μl binding buffer. For competition and supershift experiments, His-TCF4 was pre-incubated with unlabelled DNA oligonucleotides at 400-fold excess or with 1-5 μg of anti-6× His tag antibody (Abcam) for 10 minutes prior to addition of labeled probe. Samples were separated on 5% non-denaturing polyacrylamide gels for 1 h at 400V. Protein-DNA complexes were detected by phosphoimaging on a Storm 840 Scanner (Molecular Dynamics).
For orientation: A gel shift assay detects complexes by their altered migration in electrophoresis.

Series [2] has as its target T1, TCF4 (TCF7L2) DNA-binding domain. Description: EMSA; high affinity; 1 ug protein in 15 ul. The conditions noted are these: tags: His (pET28A), expressed in E. coli; label: 32P 5' end. As for the experimental part: as §1
To elucidate the molecular pathways acting upstream of Lbh, murine Lbh genomic sequences were screened for potential transcription factor binding sites. This in silico search identified four conserved putative TCF/LEF-binding elements (TBEs) in the Lbh gene locus. Two TBEs with the consensus motif 5′-CTTTG(A/T)(A/T)-3′ were located within an enhancer region (E1)-6245 (T1) and −6195 (T2) base pairs (bp) upstream of the Lbh transcriptional start site (FIG. 1A). In addition, two consensus TBEs were found in an enhancer (E2) contained within the first intron of the Lbh gene at positions +1558 (T3) and +2145 (T4) by (FIG. 1A). To directly assay for TCF binding to these sites, electrophoretic mobility shift analysis (EMSA) was performed. Recombinant TCF4 protein bound with high affinity to all Lbh-specific TBEs (T1-T4), but not to an unspecific oligonucleotide (FIG. 1B). TCF4 binding to these sites was efficiently competed by addition of 400-fold excess of unlabeled wild-type (+) oligonucleotide as well as increasing amounts of an antibody against recombinant TCF4 protein, but not by addition of 400-fold excess of mutant (m) oligonucleotide (FIGS. 1B, C). Subsequently, cell-based reporter assays were performed to test whether the Lbh genespecific TBE sites (T1-T4) were functionally responsive to overexpression of β-catenin, which is the Wnt-inducible component of the TCF/β-catenin transcriptional complex. […]

T1 sequence (Q9NQB0 265-496, one chain of several): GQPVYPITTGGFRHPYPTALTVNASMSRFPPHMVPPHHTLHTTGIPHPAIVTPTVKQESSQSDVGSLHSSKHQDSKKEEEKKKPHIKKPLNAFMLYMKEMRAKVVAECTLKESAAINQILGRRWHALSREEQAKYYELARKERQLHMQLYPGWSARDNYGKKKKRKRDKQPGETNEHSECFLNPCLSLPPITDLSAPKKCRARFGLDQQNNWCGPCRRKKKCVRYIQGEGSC

B1: Lbh TBE T3 (dsDNA)
DNA 1: GCTTTGAAGA
DNA 2: TCTTCAAAGC
In the case of B1, the binding result in series [1] is “binds”.

B2: Lbh TBE T2 (dsDNA)
DNA 1: TCTTTGATAT
DNA 2: ATATCAAAGA
Regarding B2, the binding result in series [2] is given as “binds”.

B3: Lbh TBE T4 (dsDNA)
DNA 1: ACTTTGTACT
DNA 2: AGTACAAAGT
Consider B3, for which the binding result in series [2] was “binds”.

B4: Lbh TBE T1 (dsDNA)
DNA 1: CCTTTGAATC
DNA 2: GATTCAAAGG
With B4, the binding result in series [2] is reported as “binds”.
